Target: gp120 (strain not stated)
Test: competitive ELISA

For “CD4M8 (double mutant of CD4M3: Gln20Ala, Thr25Ala) (designed binder)”, which fold increase in binding affinity over CD4M3 is on record?
Its fold increase in binding affinity over CD4M3 is greater than 10 fold.
